Data taken from patent US20230357348A1 (AstraZeneca / MedImmune, published 2023).
Starred links: 1 amine or outer side, 2 acyl side, 3 side chain; linkers in the order of their positions; H or OH if unused. Non-standard residues stand in square brackets, D forms with d. Groups on a side chain read outwards from the residue. No end group written: not given here. *: point of attachment. C20 diacid = O=C(O)CCCCCCCCCCCCCCCCCCC(=O)*; C18 diacid = O=C(O)CCCCCCCCCCCCCCCCC(=O)*; γGlu = O=C(O)[C@H](CCC(=O)[*:2])N[*:1]; αMeF = C[C@](N)(Cc1ccccc1)C(=O)O; AEEA = NCCOCCOCC(=O)O; Aib = CC(C)(N)C(=O)O

B1: Peptide 504 (peptide)
peptide: H[Aib]QGTFTSDVSK[αMeF]LESK([AEEA-AEEA-γGlu-C20 diacid])RAQDFVRWLLE[Aib]K-OH
modifications: N-terminus assumed
SMILES: CC(C)C[C@H](NC(=O)[C@H](Cc1c[nH]c2ccccc12)NC(=O)[C@H](CCCNC(=N)N)NC(=O)[C@@H](NC(=O)[C@H](Cc1ccccc1)NC(=O)[C@H](CC(=O)O)NC(=O)[C@H](CCC(N)=O)NC(=O)[C@H](C)NC(=O)[C@H](CCCNC(=N)N)NC(=O)[C@H](CCCCNC(=O)COCCOCCNC(=O)COCCOCCNC(=O)CC[C@H](NC(=O)CCCCCCCCCCCCCCCCCCC(=O)O)C(=O)O)NC(=O)[C@H](CO)NC(=O)[C@H](CCC(=O)O)NC(=O)[C@H](CC(C)C)NC(=O)[C@](C)(Cc1ccccc1)NC(=O)[C@H](CCCCN)NC(=O)[C@H](CO)NC(=O)[C@@H](NC(=O)[C@H](CC(=O)O)NC(=O)[C@H](CO)NC(=O)[C@@H](NC(=O)[C@H](Cc1ccccc1)NC(=O)[C@@H](NC(=O)CNC(=O)[C@H](CCC(N)=O)NC(=O)C(C)(C)NC(=O)[C@@H](N)Cc1c[nH]cn1)[C@@H](C)O)[C@@H](C)O)C(C)C)C(C)C)C(=O)N[C@@H](CC(C)C)C(=O)N[C@@H](CCC(=O)O)C(=O)NC(C)(C)C(=O)N[C@@H](CCCCN)C(=O)O
B2: Peptide 505 (peptide)
peptide: H[Aib]QGTFTSDVSK[αMeF]LDTK([AEEA-AEEA-γGlu-C20 diacid])RAQDFVQWLLE[Aib]K-NH2
modifications: N-terminus assumed
SMILES: CC(C)C[C@H](NC(=O)[C@H](Cc1c[nH]c2ccccc12)NC(=O)[C@H](CCC(N)=O)NC(=O)[C@@H](NC(=O)[C@H](Cc1ccccc1)NC(=O)[C@H](CC(=O)O)NC(=O)[C@H](CCC(N)=O)NC(=O)[C@H](C)NC(=O)[C@H](CCCNC(=N)N)NC(=O)[C@H](CCCCNC(=O)COCCOCCNC(=O)COCCOCCNC(=O)CC[C@H](NC(=O)CCCCCCCCCCCCCCCCCCC(=O)O)C(=O)O)NC(=O)[C@@H](NC(=O)[C@H](CC(=O)O)NC(=O)[C@H](CC(C)C)NC(=O)[C@](C)(Cc1ccccc1)NC(=O)[C@H](CCCCN)NC(=O)[C@H](CO)NC(=O)[C@@H](NC(=O)[C@H](CC(=O)O)NC(=O)[C@H](CO)NC(=O)[C@@H](NC(=O)[C@H](Cc1ccccc1)NC(=O)[C@@H](NC(=O)CNC(=O)[C@H](CCC(N)=O)NC(=O)C(C)(C)NC(=O)[C@@H](N)Cc1c[nH]cn1)[C@@H](C)O)[C@@H](C)O)C(C)C)[C@@H](C)O)C(C)C)C(=O)N[C@@H](CC(C)C)C(=O)N[C@@H](CCC(=O)O)C(=O)NC(C)(C)C(=O)N[C@@H](CCCCN)C(N)=O
B3: Peptide 506 (peptide)
peptide: H[Aib]QGTFTSDVSK[αMeF]LDTK([AEEA-AEEA-γGlu-C20 diacid])RARDFVAWLLE[Aib]G-OH
modifications: N-terminus assumed
SMILES: CC(C)C[C@H](NC(=O)[C@H](Cc1c[nH]c2ccccc12)NC(=O)[C@H](C)NC(=O)[C@@H](NC(=O)[C@H](Cc1ccccc1)NC(=O)[C@H](CC(=O)O)NC(=O)[C@H](CCCNC(=N)N)NC(=O)[C@H](C)NC(=O)[C@H](CCCNC(=N)N)NC(=O)[C@H](CCCCNC(=O)COCCOCCNC(=O)COCCOCCNC(=O)CC[C@H](NC(=O)CCCCCCCCCCCCCCCCCCC(=O)O)C(=O)O)NC(=O)[C@@H](NC(=O)[C@H](CC(=O)O)NC(=O)[C@H](CC(C)C)NC(=O)[C@](C)(Cc1ccccc1)NC(=O)[C@H](CCCCN)NC(=O)[C@H](CO)NC(=O)[C@@H](NC(=O)[C@H](CC(=O)O)NC(=O)[C@H](CO)NC(=O)[C@@H](NC(=O)[C@H](Cc1ccccc1)NC(=O)[C@@H](NC(=O)CNC(=O)[C@H](CCC(N)=O)NC(=O)C(C)(C)NC(=O)[C@@H](N)Cc1c[nH]cn1)[C@@H](C)O)[C@@H](C)O)C(C)C)[C@@H](C)O)C(C)C)C(=O)N[C@@H](CC(C)C)C(=O)N[C@@H](CCC(=O)O)C(=O)NC(C)(C)C(=O)NCC(=O)O
B4: Peptide 508 (peptide)
peptide: H[Aib]QGTFTSDVSK[αMeF]LESK([AEEA-AEEA-γGlu-C20 diacid])RAQDFVRWLVE[Aib]G-NH2
modifications: N-terminus assumed
SMILES: CC(C)C[C@H](NC(=O)[C@H](Cc1c[nH]c2ccccc12)NC(=O)[C@H](CCCNC(=N)N)NC(=O)[C@@H](NC(=O)[C@H](Cc1ccccc1)NC(=O)[C@H](CC(=O)O)NC(=O)[C@H](CCC(N)=O)NC(=O)[C@H](C)NC(=O)[C@H](CCCNC(=N)N)NC(=O)[C@H](CCCCNC(=O)COCCOCCNC(=O)COCCOCCNC(=O)CC[C@H](NC(=O)CCCCCCCCCCCCCCCCCCC(=O)O)C(=O)O)NC(=O)[C@H](CO)NC(=O)[C@H](CCC(=O)O)NC(=O)[C@H](CC(C)C)NC(=O)[C@](C)(Cc1ccccc1)NC(=O)[C@H](CCCCN)NC(=O)[C@H](CO)NC(=O)[C@@H](NC(=O)[C@H](CC(=O)O)NC(=O)[C@H](CO)NC(=O)[C@@H](NC(=O)[C@H](Cc1ccccc1)NC(=O)[C@@H](NC(=O)CNC(=O)[C@H](CCC(N)=O)NC(=O)C(C)(C)NC(=O)[C@@H](N)Cc1c[nH]cn1)[C@@H](C)O)[C@@H](C)O)C(C)C)C(C)C)C(=O)N[C@H](C(=O)N[C@@H](CCC(=O)O)C(=O)NC(C)(C)C(=O)NCC(N)=O)C(C)C
B5: Peptide 510 (peptide)
peptide: H[Aib]QGTFTSDVSK[αMeF]LDTK([AEEA-AEEA-γGlu-C20 diacid])RARDFVRWLL[Aib]E-OH
modifications: N-terminus assumed
SMILES: CC(C)C[C@H](NC(=O)[C@H](Cc1c[nH]c2ccccc12)NC(=O)[C@H](CCCNC(=N)N)NC(=O)[C@@H](NC(=O)[C@H](Cc1ccccc1)NC(=O)[C@H](CC(=O)O)NC(=O)[C@H](CCCNC(=N)N)NC(=O)[C@H](C)NC(=O)[C@H](CCCNC(=N)N)NC(=O)[C@H](CCCCNC(=O)COCCOCCNC(=O)COCCOCCNC(=O)CC[C@H](NC(=O)CCCCCCCCCCCCCCCCCCC(=O)O)C(=O)O)NC(=O)[C@@H](NC(=O)[C@H](CC(=O)O)NC(=O)[C@H](CC(C)C)NC(=O)[C@](C)(Cc1ccccc1)NC(=O)[C@H](CCCCN)NC(=O)[C@H](CO)NC(=O)[C@@H](NC(=O)[C@H](CC(=O)O)NC(=O)[C@H](CO)NC(=O)[C@@H](NC(=O)[C@H](Cc1ccccc1)NC(=O)[C@@H](NC(=O)CNC(=O)[C@H](CCC(N)=O)NC(=O)C(C)(C)NC(=O)[C@@H](N)Cc1c[nH]cn1)[C@@H](C)O)[C@@H](C)O)C(C)C)[C@@H](C)O)C(C)C)C(=O)N[C@@H](CC(C)C)C(=O)NC(C)(C)C(=O)N[C@@H](CCC(=O)O)C(=O)O
B6: Peptide 511 (peptide)
peptide: H[Aib]QGTFTSDVSK[αMeF]LDTK([AEEA-AEEA-γGlu-C20 diacid])RARDFVRWLL[Aib]E-NH2
modifications: N-terminus assumed
SMILES: CC(C)C[C@H](NC(=O)[C@H](Cc1c[nH]c2ccccc12)NC(=O)[C@H](CCCNC(=N)N)NC(=O)[C@@H](NC(=O)[C@H](Cc1ccccc1)NC(=O)[C@H](CC(=O)O)NC(=O)[C@H](CCCNC(=N)N)NC(=O)[C@H](C)NC(=O)[C@H](CCCNC(=N)N)NC(=O)[C@H](CCCCNC(=O)COCCOCCNC(=O)COCCOCCNC(=O)CC[C@H](NC(=O)CCCCCCCCCCCCCCCCCCC(=O)O)C(=O)O)NC(=O)[C@@H](NC(=O)[C@H](CC(=O)O)NC(=O)[C@H](CC(C)C)NC(=O)[C@](C)(Cc1ccccc1)NC(=O)[C@H](CCCCN)NC(=O)[C@H](CO)NC(=O)[C@@H](NC(=O)[C@H](CC(=O)O)NC(=O)[C@H](CO)NC(=O)[C@@H](NC(=O)[C@H](Cc1ccccc1)NC(=O)[C@@H](NC(=O)CNC(=O)[C@H](CCC(N)=O)NC(=O)C(C)(C)NC(=O)[C@@H](N)Cc1c[nH]cn1)[C@@H](C)O)[C@@H](C)O)C(C)C)[C@@H](C)O)C(C)C)C(=O)N[C@@H](CC(C)C)C(=O)NC(C)(C)C(=O)N[C@@H](CCC(=O)O)C(N)=O
B7: Peptide 512 (peptide)
peptide: H[Aib]QGT[αMeF]TSDVSK[αMeF]LDTK([AEEA-AEEA-γGlu-C18 diacid])RAQD[αMeF]VRWLLA[Aib]G-NH2
modifications: N-terminus assumed
SMILES: CC(C)C[C@H](NC(=O)[C@H](CC(C)C)NC(=O)[C@H](Cc1c[nH]c2ccccc12)NC(=O)[C@H](CCCNC(=N)N)NC(=O)[C@@H](NC(=O)[C@](C)(Cc1ccccc1)NC(=O)[C@H](CC(=O)O)NC(=O)[C@H](CCC(N)=O)NC(=O)[C@H](C)NC(=O)[C@H](CCCNC(=N)N)NC(=O)[C@H](CCCCNC(=O)COCCOCCNC(=O)COCCOCCNC(=O)CC[C@H](NC(=O)CCCCCCCCCCCCCCCCC(=O)O)C(=O)O)NC(=O)[C@@H](NC(=O)[C@H](CC(=O)O)NC(=O)[C@H](CC(C)C)NC(=O)[C@](C)(Cc1ccccc1)NC(=O)[C@H](CCCCN)NC(=O)[C@H](CO)NC(=O)[C@@H](NC(=O)[C@H](CC(=O)O)NC(=O)[C@H](CO)NC(=O)[C@@H](NC(=O)[C@](C)(Cc1ccccc1)NC(=O)[C@@H](NC(=O)CNC(=O)[C@H](CCC(N)=O)NC(=O)C(C)(C)NC(=O)[C@@H](N)Cc1c[nH]cn1)[C@@H](C)O)[C@@H](C)O)C(C)C)[C@@H](C)O)C(C)C)C(=O)N[C@@H](C)C(=O)NC(C)(C)C(=O)NCC(N)=O

How the values were obtained:
[1] = biological target: human GLP-1 receptor (hGLP-1R) (human, UniProt P43220 24-463); experiment: cell-based or functional assay
[2] = biological target: human glucagon receptor (hGCGR) (human, UniProt P47871 26-477); experiment: cell-based or functional assay
human glucagon receptor (hGCGR), sequence (P47871 26-477): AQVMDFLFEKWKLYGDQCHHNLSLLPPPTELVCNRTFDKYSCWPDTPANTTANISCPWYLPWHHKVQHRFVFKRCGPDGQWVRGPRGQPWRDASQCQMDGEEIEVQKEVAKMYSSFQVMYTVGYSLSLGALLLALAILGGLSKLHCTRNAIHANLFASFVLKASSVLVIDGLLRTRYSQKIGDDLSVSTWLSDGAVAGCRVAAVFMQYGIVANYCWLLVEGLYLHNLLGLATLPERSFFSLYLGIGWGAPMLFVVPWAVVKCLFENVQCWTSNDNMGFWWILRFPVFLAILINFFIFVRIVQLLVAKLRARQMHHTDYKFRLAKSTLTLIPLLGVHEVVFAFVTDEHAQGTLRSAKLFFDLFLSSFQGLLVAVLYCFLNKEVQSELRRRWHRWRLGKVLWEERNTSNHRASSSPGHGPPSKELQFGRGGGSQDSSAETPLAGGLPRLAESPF

Binder	hGLP-1R EC50 (pM) [1] [pM]	hGluc-R EC50 (pM) [2] [pM]
B1	124	551
B2	42.1	191
B3	162	149
H[Aib]QGTFTSDVSK[αMeF]LDTK([AEEA-AEEA-γGlu-C20 diacid])RARDFVAWLLE[Aib]G-NH2 [Peptide 507]	52.9	86.6
B4	67.9	2800
B5	176	118
B6	118	140
B7	159	2310
